Seven molecules from US20220073608A1 (JIANGSU HUAIYU PHARMACEUTICAL, published 2022) can be followed below.

The target in test [1] is T1, human SEMA4D, full length, on CHO-K1 cells (CHO-K1 hSEMA4D) (human, UniProt Q92854 22-862).
T1 construct: whole, on cells; also called human SEMA4D recombinant cells
T1 sequence (looked up): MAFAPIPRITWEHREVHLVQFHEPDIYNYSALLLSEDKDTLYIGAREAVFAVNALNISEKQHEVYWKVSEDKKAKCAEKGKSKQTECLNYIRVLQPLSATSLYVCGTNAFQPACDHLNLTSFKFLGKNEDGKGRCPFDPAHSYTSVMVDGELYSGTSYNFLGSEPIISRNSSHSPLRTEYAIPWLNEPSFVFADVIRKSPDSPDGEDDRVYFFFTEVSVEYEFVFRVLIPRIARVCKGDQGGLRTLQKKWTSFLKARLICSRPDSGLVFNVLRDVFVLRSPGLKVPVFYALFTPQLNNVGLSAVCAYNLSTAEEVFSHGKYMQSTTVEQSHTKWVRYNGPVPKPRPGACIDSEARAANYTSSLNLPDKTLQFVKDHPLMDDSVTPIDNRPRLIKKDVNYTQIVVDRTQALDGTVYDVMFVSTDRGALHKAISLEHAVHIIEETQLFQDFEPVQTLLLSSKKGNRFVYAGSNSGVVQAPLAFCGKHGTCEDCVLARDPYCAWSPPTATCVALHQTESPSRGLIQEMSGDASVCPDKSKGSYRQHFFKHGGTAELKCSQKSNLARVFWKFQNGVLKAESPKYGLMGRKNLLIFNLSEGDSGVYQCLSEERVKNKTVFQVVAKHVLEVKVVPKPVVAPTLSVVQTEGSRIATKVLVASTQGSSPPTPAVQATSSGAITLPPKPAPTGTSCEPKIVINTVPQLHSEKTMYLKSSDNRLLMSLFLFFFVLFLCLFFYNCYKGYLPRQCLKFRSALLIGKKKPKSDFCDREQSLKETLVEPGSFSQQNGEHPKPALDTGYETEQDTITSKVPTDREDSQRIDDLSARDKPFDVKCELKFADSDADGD
In words: competitive FACS, CHO-K1 hSEMA4D cells; unlabelled Ab 6 ug/mL first, competitor Alexa 488-VX15 0.67 ug/mL. From the text: The purified hybridoma SEMA4D antibodies and fully human SEMA4D antibody were subjected to competitive flow cytometry (FACS) to analyze whether the epitopes bound by different antibodies competed with that bound by the reference antibody VX15.
The medium was aspirated, the cells were washed once with PBS buffer (purchased from Invitrogen), and then treated with cell dissociation fluid (TrypLE™ Express Enzyme, purchased from Life technology), and the cells were collected. After the cells counted, the cells were washed once with PBS phosphate buffer, and diluted to 3×10⁶ cells per milliliter, and added to the 96-well FACS reaction plate as 100 μL per well. 2% (w/w) fetal calf serum was added to PBS phosphate buffer as FACS buffer, with which the cells were washed once by centrifugation at 2000 rpm 4° C. 100 μL of the leading antibodies and IgG control diluted to a concentration of 6 μg/mL was added to each well and the plate was incubated for 1 hour on ice. […] Cells were washed 2 times by centrifugation with FACS buffer. The cells were suspended with 200 μL of FACS buffer, and FACS (FACS Verse, purchased from BD) was used to detect and analyze the results.

Test [2] addresses T2, hSEMA4D ECD-His (His-tagged human SEMA4D protein extracellular domain, Met22-Arg734) (human, UniProt Q92854 22-734).
T2 construct: Expressed in CHO-S cells, purified on Ni column; also called protein immunogen; immunogen A; not shown: His tag of the pCP vector
T2 sequence: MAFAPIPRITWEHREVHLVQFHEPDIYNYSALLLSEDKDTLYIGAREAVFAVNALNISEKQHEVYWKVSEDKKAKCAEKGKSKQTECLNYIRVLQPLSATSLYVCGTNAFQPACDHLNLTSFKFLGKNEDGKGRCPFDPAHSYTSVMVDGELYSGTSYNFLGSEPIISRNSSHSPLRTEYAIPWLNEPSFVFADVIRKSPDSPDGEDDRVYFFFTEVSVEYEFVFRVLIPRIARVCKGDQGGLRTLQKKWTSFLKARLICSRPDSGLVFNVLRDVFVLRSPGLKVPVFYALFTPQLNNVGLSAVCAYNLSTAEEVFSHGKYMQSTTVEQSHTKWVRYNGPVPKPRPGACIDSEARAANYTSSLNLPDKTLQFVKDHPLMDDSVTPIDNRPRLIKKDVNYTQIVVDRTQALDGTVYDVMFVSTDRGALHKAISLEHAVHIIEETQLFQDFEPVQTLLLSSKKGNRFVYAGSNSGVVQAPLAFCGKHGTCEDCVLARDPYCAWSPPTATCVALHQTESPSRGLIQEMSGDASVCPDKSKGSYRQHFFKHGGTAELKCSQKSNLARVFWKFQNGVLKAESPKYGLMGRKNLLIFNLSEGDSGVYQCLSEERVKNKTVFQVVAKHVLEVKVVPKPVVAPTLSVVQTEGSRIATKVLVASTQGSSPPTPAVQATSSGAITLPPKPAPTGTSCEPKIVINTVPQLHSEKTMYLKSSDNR
The test can be described thus: ELISA, coated hSEMA4D ECD-His; Ab 6.67 nM. Here is the method:
First, hSEMA4D ECD-His was diluted with PBS to a final concentration of 1.0 μg/mL, and then was added to a 96-well ELISA plate, 100 μL per well, sealed with plastic film and incubated overnight at 4° C. On the next day, the plate was washed with a plate washing solution, that is, PBS buffer containing 0.05% (v/v) Tween20, for 4 times, and added with blocking solution, that is, PBS buffer containing 0.05% (v/v) Tween20 and 2% (w/w) BSA, blocked at 37° C. for 1 hour. The blocking solution was poured out and the plate was washed 4 times with the plate washing solution. 100 μL of the purified leading antibodies obtained in Examples 1 and 2 was added to each well. After incubation at 37° C. for 1 hour, the plate was washed 4 times with a plate washing solution. 100 μL of horseradish peroxidase (HRP) labeled secondary antibody (purchased from Sigma) was added at a dilution of 1:10000 to each well, and the plate was incubated at 37° C. for 1 hour, and washed 4 times with a plate washing solution. 100 μL TMB substrate was added to each well, and the plate was incubated at room temperature for 5 minutes, and added with 100 μL stop solution (1.0N HCl) to each well. A microplate reader (SpectraMax M5e, purchased from Molecular Device) was used to read the A450 nm value. […] Wherein, the data in the table was the OD450 nm value.
On the technique in general: ELISA stands for enzyme-linked immunosorbent assay.

B1: 37F11F9 (antibody, V domains shown)
VH: EVQLQQSGPVLVKPGASVKMSCKASGYTFTDYYMNWVKQSHGKSLEWIGLINPYSGGSTFNQKFKAKATLTVDKSSSSAYMDLNSLTSEDSAVYYCARVGDGYYGVTHGMDYWGQGTSVTVSS
VL: DIVMTPSQKFMSTTVGDRVSITCKASQNVGTAVAWYQQKPGQSPTILIYSASNRYTGVPDRFTGSGSGTDFTLTISNMKSEDLADYFCQQYYIYPFTFAAGTKLELK
notes: Mouse monoclonal antibody purified from hybridoma supernatant on protein A
On to B1, for which, in test [1], the “inhibition rate (%)” value worked out at 25%. Moreover, the OD450 nm in test [2] was determined as 1.54.

B2: 37C4F7 (antibody, V domains shown)
VH: EFQLQQSGPEVVKPGASVKISCKASGYSFTDYNMNWMKQSKGKSLEWIGVINPNYGTTTYNQNFKGKATLTVDQSSSTAYMQLNSLTSEDSAVYYCARDMYYVYAYYTMDYWGQGTSVTVSS
VL: DVVMTQTPLSLPVSLGDQASISCRSSQSLVHSNGHTYLHWYLQRPGQSPTLLIYKVSNRFSGVPDRFSGSGSGTDFTLKISRVEAEDLGVYFCSQGTHVPWTFGGGTKLEIK
notes: as for B1
Turning to B2, the “inhibition rate (%)” value in test [1] was determined as 20%. In test [2], this molecule had an OD450 nm of 1.19.

B3: 38H2E3 (antibody, V domains shown)
VH: EFQLQQSGPEVVKPGASVKISCKASGYSFTDYNMNWMKQSKGKSLEWIGVISPDYGTTTYNQNFKDKATLTVDQSSSTAYMQLNSLTSEDSAVYYCAKDMYYVYAYYTMDYWGHGTSVTVSS
VL: DVVMTQTPLSLPVSLGDQASISCRSSQSLVHSNGHTYLHWYLQRPGQSPTLLIYKVSNRFSGVPDRVSGSGSGTDFTLKISRVEAEDLGVYFCSQGTHVPRTFGGGTKLEIK
notes: as for B1
With B3, the “inhibition rate (%)” value in test [1] turned out to be 21%. In addition, in test [2], the OD450 nm worked out at 1.46.

B4: 42B7G2 (antibody, V domains shown)
VH: QVQLQQSGAELARPGASVKLSCKASGYTFTDYGISWVKQRTGQGLEWIGEIYLRNDNSYYNEKFKGKATLTADKSSNTAYMELRSLTSEDSAVYFCARWGDHGNNYEDAMDYWGQGTSVTVSS
VL: DIVLTQSPASLAMSLGKRATISCRASESVSIIGSNLIHWYQQKPGQPPKLLIYHASNLETGVPARFSGSGSRTDFTLTIDPVEEDDVAIYYCLQSRKVPYTFGGGTKLEIK
notes: as for B1
With B4, in test [1], the “inhibition rate (%)” value stood at 15%. Further, the OD450 nm in test [2] was found to be 2.07.

B5: 32C8F10 (antibody, V domains shown)
VH: EVQLQQSGAELVRPGASVKLSCTASGFNIKDEYIHWVKQRPEQGLEWIGWIDPANGHTEYASRFQAKATITADTSSNTAYLQLSSLTSEDTAVYYCTTGDYDGFAYWGQGTLVTVST
VL: QIVLTQSPAIMSASPGEKVTISCSARSSVSYMYWYQQKPGSSPKPWIYRTSNLASGVPARFSGSGSGTSYSLTISSMEAEDAATYYCQHYHTYPYTFGGGTKLEIK
notes: as for B1
Consider B5, for which the “inhibition rate (%)” value in test [1] is 42%. The molecule further yielded an OD450 nm in test [2] of 2.32.

B6: 31G10C5 (antibody, V domains shown)
VH: EVQLQQSGAELVRPGASVKLSCTASGFNIKDDYIHWVKQRPEQGLEWIGWIDPANGHIEYASNFQAKATITADTSSNTAYLQLSSLTSEDTAVYYCTTGDYDGFTYWGQGTLVTVST
VL: QIVLTQSPAIMSASPGEKVTISCSARSSVSYMYWYQQKPGSSPKPWIYRTSNLASGVPARFSGSGSGTSYSLTISSMEAEDAATYYCQHYHTYPYTFGGGTKLEIK
notes: as for B1
For B6, the “inhibition rate (%)” value in test [1] was 42%. Also, the OD450 nm in test [2] was 1.59.

B7: 31C11G2 (antibody, V domains shown)
VH: EVQLQQSGAELVRPGASVKLSCTASGFNIKDEYIHWVKQRPEQGLEWIGWIDPANGHTEYASRFQAKATITADTSSNTAYLQLSSLTSEDTAVYYCTTGDYDGFVYWGQGTLVTVST
VL: QIVLTQSPAIMSASPGEKVTIFCSARSSVSYMYWYQQKPGSSPKPWIYRTSNLASGVPARFSGSGSGTSYSLTISSMEAEDAATYYCQHYHTYPYTFGGGTKLEIK
notes: as for B1
As for B7, the “inhibition rate (%)” value in test [1] was 44%. The molecule also showed an OD450 nm in test [2] of 1.74.
